# According to the DeepSol protein solubility set:
# Test: soluble on expression in E. coli; label from the status in PepcDB or PDB records
row,Sequence,soluble on expression in E. coli
1,MPKAVAVLFFLLFTSLSYAESAFDIVQKSDQAMRGKSSYSEATMEIVRPDWTRSMTMKSWTKGTELSLVLVTAPAKDKGSASLKRHREMWNWVPSIERVIKIAPSMLSQSWMGSDFTNDDLINQSSIVVDYQHALLGNDSFEGDKVWVIEATAKPDAPVVWNKVTLWISQSTYLQRKVEFYDEFDERVNVLTTYDVKELGGRKIATRMEMKPVDKPGNKTIFTTHQAQFDFDINDDFFSQQQMKSLRD,not soluble
2,SLARMSRRSRGAAGAQSVVKPETPMAQVLHQFNYCPCQYLEQNWIVPKQPWLLNLDGWRDNPNFNLWCLEEWALAPVPETAFNKPHHSLALLPPDALSTLMLTIGGALHSFAMRQVVLKKPKQCLNNVFGLDIARFLIQQGPMLLSQWPKGWQKALPDVMKEDEVERHMLKQGYAWMKFILASSSHDILLRWQFKLDQSLSQVKENTSWLVEEQRDLAYRLTKKIAKQVIPQWFHLLK,soluble
3,MTGASRPPKSRRSAAAAPSPEGLTLDLERYVPAFITFIANKLSNSATAFYQGNFGVNVTEWRIMSLLAIEPGISAARICQVIGFNKGPVSRTLSDMQSRGLITIRVDPNDARTHSISLTGKGRATHDKVIVAALERERKLMSCLSADEQEVLIDLLRRLHNNLGAVTGETT,not soluble
4,MGSDKIHHHHHHMNNSASEQKWKWWPLLPLYPYGRRRTIFRELVPNQIWSFEQLQGIYYVAVPVRLLVIRVKNELMIINPLPPTSELLKEIDLLQKKIGPVKTIVLPTASGLEHKIGLPALARAFPNAKIWLCPGQWSFPFQLPFDWLGIPSNRTNILLADGFPHGDDCEWISLGPIDIGLARFQEISCFHKPTKSLLVTDALVGIEATPPELFNLDPTPLLFHSREKGSEELIDSPIARRKGWLRLVLFASYLKPEKLEIPKIKEILENSFKPKMRNKRSHFGIYPFAWQEGWDLSAKKLVGEKTPLIQIAPVIERLVFPRGKKAFISWLNKIESLKGISFLISAHYSGKVRFTTNEIRALKVKIDNSNWEKTQGDFKFLSWFDQKLLNFGIVPKNPLKKFSD,not soluble
5,MTALTIKDLRYKHNQRMILQNVQLTLAPSKIVGLLGENGAGKTTLMRLITGSAKGQGSIVINGATTAVARKQQVSFTDHLTGFSAGMKLQQIAQFYQLVYPDFDAKRYQELVDFLELNQQQKLGELSKGTREKLIIALTLSRKVALYLLDEPFSGIDSMSRKKIINSIIKWTPAEATLLISDHYVTEIAPILDEIVVVKDQTIVVHQGADEIRDEHGMELEDYYESLYMGGVTDDK,not soluble
6,MVVLHVKRGDESQFLLQAPGSTELEELTAQVARVYNGRLKVHRLCSEMEELAEHGVFLHPNMQGLTDEQIEELKLKDEWGEKCVPSGGSVFTKDEIGRRNGQAPNEKMKQVLKKTVEEAKAIVSKKQVEAGVFVTMEMVKDALDQLRGAVMIVYPMGLPPYDPIRMEFENKEDLSGTQAALEVIQESEAQLWWAAKELRRTKKLSDYVGKNEKTKIIVKIQQRGQGAPAREPVISSEEHKQLMLFYHRRQEELKKLEENDDDSCLNSPWADNTALKRHFHGVKDIKWRPR,soluble
7,MAHHHHHHMTVARDHDIDDHDTSFTSFGGERPPFERIPVPSMASKEYTENLPAFDSDRPMPPPRSVFERFSRVMQLQFGQDPDMPLLGSRAERKYRSWLDYVTSPPSPLLPRNYVDAYTRPNPCPEEYWWASWRWPRIKYVNAKVPPPVDGKYNDYYHYLAYKNWMERERDVYVAHANLVNEMAMRCLVKEGQYNAAKNCRHLYHKGFAMSRMEELNQTLLYMALTGNAAIRETPYPENFVEEKRKIYDDWLFRTRMKKPGDVA,not soluble
8,MSAGKTGNHLMISDSKLLASAAWDAQSLNELKAKAGEDPAANIRPVARQVEGMFVQMMLKSMRDALPKDGLFSSEHTRLYTSMYDQQIAQQMTAGKGLGLAEMMVKQMTPEQPLPEEPTPAAPMKFPLETVVRYQNQALSQLVQKAVPRNYDDSLPGNSKAFLAQLSLPAQLASQQSGVPHHLILAQAALESGWGQRQIRRENGEPSYNLFGVKASGNWKGPVTEITTTEYENGEAKKVKAKFRVYSSYLEALSDYVGLLTRNPRYAAVTTAASAEQGAQALQDAGYATDPHYARKLTNMIQQMKSISDKVSKTYSMNIDNLF,soluble
9,MGSDKIHHHHHHMNLLKIIDDLQLEKIDQEEFLKPALRRGLFKKASDFSLKAALTSLPFALFAMPRIVQASTQANTQSVTDTLNYALTLEYLEEAFYVQGLAKSGLIDSADMTIFNQIKKHESAHVVFLKNVLGSAANPSPAFDFGTAFDSYANFLATAQALEDTGVRAYKGQAGNLITNKVALTAALQIHSVEARHASEVRRLRMLNGWIGVGEAGATYGAGEDANFPAESNLTQGGVDLSILASADVTMTNIAEAFDEPLDKNTVFGIAQGFIVS,not soluble
10,PRNSKNDGVDTAIYHHKLRDQVLKALYDVLAKESEHPPQSILHTAKAIESEMNKVNNCDTNEAAYKARYRIIYSNVISKNNPDLKHKIANGDITPEFLATCDAKDLAPAPLKQKIEEIAKQNLYNAQGATIERSVTDRFTCGKCKEKKVSYYQLQTRSADEPLTTFCTCEACGNRWKFS,soluble
11,MGSDKIHHHHHHMSITKRIRDNQRNTVLSPVPPFPKSMMLEPSNACNHACRFCGNNRSGIKRVNIPVDFARDILAQAAALGVEEVGLYLRGEPFLHPRLNEIVSYAKASGIGYVYLSSNGGCGTTEAYEAVLEAGLDSFKFSINAGNRQDFKAIHGKDDFEKVVERLRWLIAYREATGLDFKIYVSSTFIDATRGAILAMRDEFAPLVDEYYVHGTCPVPGVKSTDLDHGFSLPCPMVFNRVHVTAEGYLNACCFDFENALAVADLTRVPLNDAWASPLFEDLRRKHLMRNAKGVLCGNCVAGGGVEYEPLVMEFMSRSKRHENP,not soluble
12,MGHHHHHHSHMSDIYQHFRKDERAFIDQALEWKRIVQEQYRMKLTDFLDPREQVILSAVTGQADVGLAFSGGYDRAERKRAILFPEYITPEESDFELQAFNVRYADKFVSVDHRSLLGALMGIGLKRQKFGDIVFSETAVQLIVSADTADFVAAQLTQAGKAAVSLEKIDLSDLNIPAVDVEIRDDTVSSLRLDAVCASMSRQSRQKSQTLVKNGLVKVNWKVVEDPSYIVAEGDMLSIRGFGRCSLTKIEGKTKKDKWRVTFERQK,not soluble
13,MRKLKMMLFGASLIMVAGCSSKENALCHPQPKPPAPPAWAMMPPSNSLQLLDETFSVSGTESSETRQHLEHHHHHH,not soluble
14,MLFEGLPCLAVWCKNRLSAVLPVGGLNVSENLLEIETHPFDPVLPPKAAVMMMGTFPPKEDKRAMQFHYPNFQNDMWRVYGLVFFNDAAHFQRLSEKAFDAEKIKAFLHERGIASCPTVLKAVRQHGNASDKFLKVVETVDLAAVLAKIPECRHICTTGGKATEILLDIQGGGIKMPKTGETVPFPFAGRDLTLTRLPSTSRAYPLSLAKKAAAYRAFFEMAGLCEKQLLEHHHHHH,not soluble
15,MSLQINVNPQAALSQNAIVNNSSFSLVSKDVRSAQYVALVDSGRNNIEPIHPRQNVRITLENALAEQFGSQGFRLSVNSENTITLEIQELLVSVKHSIMENQMDGSVVLEITAETPRGKLVKSYTGTAKRTGVLSASNDEIETVLNDVINTVLKEIANDAELQNYMQERFNGEGHHHHHH,soluble
16,MSEKWIPEIMTPLKQDIVKMPEIIRQASGIKIFGRKIKSIIFTTDIAIIRNTDAQAVIAVYPFTPHPAITKGIIEAADIPVFSGVGGGLTQGMRSAYMSLFAEAQGSMGVVLNGPTPIETIKMVDEAIDIPIISTVTSIHTPIDEKLAAGVDMINISAGKDTAATVRYFRGKYPELPIIATGGPTESSIHETIIAGANAITYTPPSNGELFSKKMKKYREQEKATDEE,soluble
17,MATIRKADYYYGALLSALVNGGLAPALFEKENDNRQIYEVTTNKASYIMYTKYNTNPSGSKDFTWSFVFSDHEIAEINKIYLEHSKEKEIMFAFVCAQKQPSDSNQVIAIVRWNEFLECVDLQRQQVRGTPRLSIKAVKGSPKLRLYGSKRADVLDGKDHTIKIERNRLNSL,not soluble
18,SGSDVRDLNALLPAVPSLGGGGGCALPVSGAAQWAPVLDFAPPGASAYGSLGGPAPPPAPPPPPPPPPHSFIKQEPSWGGAEPHEEQCLSAFTVHFSGQFTGTAGACRYGPFGPPPPSQASSGQARMFPNAPYLPSCLESQPAIRNQGYSTVTFDGTPSYGHTPSHHAAQFPNHSFKHEDPMGQQGSLGEQQYSVPPPVYGCHTPTDSCTGSQALLLRTPYSSDNLYQMTSQLECMTWNQMNLGATLKG,soluble
19,MKYQAAIFDMDGLLLDTERVCMRIFQEACEVQNLPFYEDVYLSIIGRNAAGIETIFRKAYGENLDRLHLEWRTRYNAVVKHQAIP,not soluble
20,VRKRMVIGLSTGSDDDDVEVIGGVDPRLIAVQENDSDESSLTDLVEQPAKVMRIGTMIKQLLEEVRAAPLDEASRNRLRDIHATSIRELEDGLAPELREELDRLTLPFNEDAVPSDAELRIAQAQLVGWLEGLFHGIQTALFAQQMAARAQLQQMRQGALPPGVGKSGQHGHGTGQYL,soluble
21,MSLNGPLKIGYYKIGAAYRDGKGYDVDMVRELARRLGCPIANETELPRLRALKMLETGQIDVSASTLATPDRLQYAWIYQYNHAKNMVLLNPAIQARTLATLLEDPALRWGAIRGYHHGPSQDKLLEELNARHKVVIANDEDDLYKMLGNGVVTAVFAQPFSYGRWLRELPNPNQIVVLDLYPETDMVASGLALSKARFSREAAEKWHQELLKMYQDGSLYDIMRRYLNEGHHHHHH,not soluble
22,GSHMAASATAAAVAAEVISVHSLEQWTMQIEEANTAKKLVVIDFTASWCGPSRIMAPVFADLAKKFPNAVFLKVDVDELKPIAEQFSVEAMPTFLFMKEGDVKDRVVGAIKEELTAKVGLHAAAQ,soluble
23,MSLHTPLEQQEIRYRKGDIIELTITDHAEKDKCFGKTTEGMGVMVSGILAPGDRVSAQIYKVKSRYLEARAIEVLEASPDRVEPVCPVFGSCGGCKWMHVSYEAQLRYKHKKVTDSLEHIGGFESPDVRPVLAAPDALHYRNKVEFSCSNMRYLLQSEIDSDQLAKPKTFALGFHAPGNFEKVLDLDTCYLAKECMNRVLNVLRDFAIERGLEPYAAKAHEGYLRNLMLRYSERHEQLMVNIVTSWYDKALMQALKERLEAAMPEQQMTLLNNVTTRKNTVATGEQEYVISGDGYVTERLGDLDFRISANSFFQTNTRQAETLYDQIIAVGGITPEDTVYDLYCGTGTITLYLARHCKQAIGIEVVESAVKDAEMNAELNGLSNTVFFQADLKNFHAMQEALEPYAKPRIIVTDPPRAGMHPKALDTMLKLQPERIVYVSCNPDNLARDGKEIAARGYRMTSAQPVDMFPQTNHIETVACFERAEGHHHHHH,soluble
24,MLETLSFTERDEFQRRNIAENIIKLLKPEADISPLVIDGAWGTGKSEFSIKLKNLIIEQETESKVVYVDAFKGDHAESPLLLITSAIASILPEEEKQNFIKRSLPAIRFGLKTVLKAGAGWFLRQEASEVAEEFQDAMKKASNAAIDGTIENILEDHMESEKNINSLKSCIEDISNKQKIVIIIDELDRCKPSFSTNIIETIKHIFDINNVFFILVTNTEQLKASINHIYGYSINSQKYLDKFIKYTITLPDTCLINGHNVCKTSVIYWDHLVGETTLLNKINSLVGSFICDLIQRTNLSLRETQTFSRNLNIFRLLNDNECKSNDPFINMIVVVAVFIHCFGDKEKLKQEITAESISYLADLLNIKEIPYSYERRSQIPEISIIFFGIIKDSITLNERFAPKSDEELKKFTNVYTDYEHLKFWSTTPRELMIKYINQMSFIQLEHHHHHH,not soluble
